# Assay results as given in the RNAGym collection of RNA variant scans (doi:10.7554/elife.80360).
# B1: Hairpin Ribozyme (parent)
# chain: GUCCUCUUUCACGUGCGCGUGAAAGAGAGAAGUGAACCAGAGAAACACACGUUGUGGUAUAUUACCUGGUA
# Variants of: B1
# Assay: self-cleavage, relative activity (ratio to wild type); higher = more cleavage; co-transcriptional
row,Variant,self-cleavage
1,C37A U53G,0.23
2,C38U A64U,0.301
3,C37U C48A,0.12
4,A39U A47G,0.158
5,A39C C48U,0.145
6,A39U A49C,0.145
7,A39U A49U,0.0838
8,C38U U58C,0.544
9,C38U G69A,0.138
10,A39C G42U,0.11
11,C38G A49C,0.106
12,C38G A49G,0.0605
13,C38U A41U,0.742
14,C38U A41C,0.619
15,C38U A41G,0.648
16,A36U C65U,0.113
17,C37G A47C,0.14
18,C37G G68C,0.131
19,C38A G69U,0.0684
20,A36U C48G,0.182
21,A39C U55A,0.148
22,C38U U62A,0.128
23,C38U U62C,0.273
24,A39C A41G,0.591

row,Variant,self-cleavage
1,C37U A41G,0.994
2,C37U G54C,0.338
3,A36U U52A,0.303
4,A36U U52C,0.765
5,A36U U52G,0.466
6,A39U A45C,0.123
7,A39U A45G,0.252
8,C37G C66G,0.154
9,A39G U60C,0.424
10,A36U U58A,0.386
11,A39C G54A,0.121
12,A36U A44C,0.112
13,A36U A44G,0.183
14,C37G A41U,0.541
15,C38U A45G,0.197
16,C38U A45C,0.108
17,C37U G69U,0.438
18,C37U G69A,0.46
19,C37G G69A,0.346
20,C37G G69C,0.984
21,C38U C66U,0.192
22,C38U C66A,0.167
23,C37U A43U,0.0491
24,C37U A43C,0.126

row,Variant,self-cleavage
1,C38G G69A,0.196
2,C38G G69C,0.241
3,C38G G69U,0.155
4,C38U A43G,0.0885
5,C38U A43U,0.153
6,C37A U67G,0.202
7,C37A U67A,0.197
8,C37U G42A,0.198
9,C37U G42C,0.226
10,C37U A44U,0.173
11,C37U C66U,0.264
12,A39G A71U,0.176
13,A39G A71C,0.303
14,C37A G69U,0.777
15,C37U U67A,0.175
16,A39U G57A,0.155
17,A39U G57C,0.134
18,A39G A49G,0.116
19,C38A G51U,0.195
20,C37G A44C,0.16
21,A36U U67C,0.133
22,A39U C46U,0.114
23,A39U C46A,0.166
24,C38G A47U,0.171

row,Variant,self-cleavage
1,C37A U63G,0.131
2,C38A A59C,0.103
3,A39C G69U,0.147
4,A39C G69C,0.188
5,A39U A71C,0.694
6,C37U U70C,0.603
7,C37U U70A,0.544
8,C38U A59U,0.228
9,A36G U58A,0.836
10,A36G U58C,1
11,C37U U62A,0.165
12,C37U U62G,0.166
13,C38U G51C,0.583
14,C38U A71U,0.401
15,C38U A71C,0.889
16,C37A A47G,0.0917
17,C38G U63G,0.231
18,C38G U63A,0.117
19,C38G A41U,0.358
20,C37U U55C,0.172
21,C37U U55A,0.143
22,C37U U55G,0.159
23,A36G G69C,0.449
24,C38A A61U,0.064

row,Variant,self-cleavage
1,C38A U62A,0.218
2,C38G G54U,0.0948
3,C38G G54C,0.12
4,A39C A49U,0.12
5,A39C A49C,0.151
6,A39G G42A,0.114
7,A36U G42U,0.173
8,A39G G56A,0.147
9,A39G G56U,0.0978
10,C37A U58A,0.235
11,A36U A59C,0.228
12,C38A G56U,0.179
13,A39G A43U,0.141
14,C38A U63A,0.0537
15,C38A U63G,0.165
16,A39U A43C,0.129
17,C38A C46G,0.133
18,C38U C65A,0.453
19,C38A C65G,0.104
20,C38A C65U,0.204
21,C38G U55A,0.288
22,C38G U55G,0.193
23,A39C U52C,0.56
24,C37A A41G,0.339

row,Variant,self-cleavage
1,A36G U62G,0.221
2,A39G A44C,0.0747
3,A39G C48A,0.0878
4,A39G U58C,0.272
5,A39C A45C,0.174
6,A39C A45U,0.231
7,C38G C65A,0.145
8,A36U C38U,0.112
9,A36U C38A,0.0871
10,C38G G68U,0.514
11,C38G A43U,0.154
12,C38U G56U,0.14
13,C38U G56A,0.106
14,C37U G57A,0.169
15,C37G G51A,0.647
16,C37U A45C,0.109
17,C37U A45U,0.11
18,A36G G57U,0.317
19,C38U U55C,0.231
20,A39C A47C,0.207
21,A39G G40A,0.102
22,C37G U63C,0.154
23,C38G C50A,0.162
24,C38G C50G,0.0871

row,Variant,self-cleavage
1,C38A A43U,0.152
2,C38G U58C,0.185
3,C38G U58A,0.139
4,C38G U58G,0.175
5,A36G U52A,0.791
6,A36U G56A,0.0631
7,A36U G56C,0.131
8,C37G G42C,0.152
9,C38G U53G,0.206
10,C38G U53C,0.196
11,A36G U60G,0.62
12,A36G U60C,1.1
13,A36G U60A,0.779
14,A36U C50U,0.125
15,A36U C50G,0.0987
16,A36U G51A,0.508
17,A39G A45G,0.0935
18,C37G U60C,0.331
19,C38U A44U,0.135
20,C38U A44C,0.0457
21,A39G A61G,0.123
22,A39G A61C,0.139
23,A36U U53A,0.464
24,C38G C46U,0.116

row,Variant,self-cleavage
1,C38G C46A,0.148
2,A39U C50G,0.0689
3,A39U C50A,0.139
4,A39U C50U,0.204
5,C37G G54U,0.255
6,C38U A49C,0.245
7,A39U G42U,0.172
8,A39C G56U,0.134
9,A39C G56C,0.144
10,A36U A39C,0.084
11,A36G U53A,1.2
12,A36G U53G,0.507
13,C37A A64C,0.144
14,C37G U52C,0.242
15,C37G U52A,0.358
16,C37G G40U,0.186
17,C37G A71U,0.216
18,C37G A71C,0.784
19,A36U A71C,0.959
20,C37A A45G,0.0956
21,A36G U63G,0.3
22,C38U G40U,0.101
23,A39G A47U,0.134
24,A39G A47G,0.116

row,Variant,self-cleavage
1,C37U A71G,0.779
2,C37A A61G,0.207
3,C38G A59G,0.162
4,C38G A59U,0.125
5,C37U A49G,0.508
6,C37U A49C,0.0924
7,C38A U58C,0.181
8,C38A G68U,0.735
9,C38A G68C,0.137
10,A39U A61C,0.187
11,C38U C46A,0.182
12,C38U U63A,0.141
13,C37A G42C,0.16
14,C37A U55A,0.121
15,C37A U55G,0.0701
16,A39G U55G,0.12
17,A39G U55C,0.119
18,C37G C48A,0.192
19,C37G A39G,0.328
20,C37G A39U,0.0635
21,A39G G54U,0.163
22,C37U C46U,0.198
23,C37U C50G,0.226
24,C37G U62G,0.138

row,Variant,self-cleavage
1,A39C C66U,0.306
2,A39C C66G,0.0809
3,C38G U67C,0.119
4,A39C U53A,0.549
5,A39C U62C,0.161
6,C37A G57C,0.158
7,A36G U67A,0.195
8,C38U G54U,0.336
9,C38U G54C,0.235
10,A36G G56C,0.0421
11,A36U C66A,0.114
12,A36U U60A,0.487
13,A39C A44G,0.0893
14,C38U C50G,0.0694
15,C37G A61C,0.112
16,C38A A44C,0.108
17,C38U G57A,0.229
18,C38G U62C,0.236
19,C37G,0.363
20,C37U,0.614
21,C37A,0.345
22,C37U U58C,0.743
23,A39C U67A,0.272
24,A39G A59U,0.153

row,Variant,self-cleavage
1,C37A G56A,0.156
2,C37A G56U,0.189
3,C38U U60C,0.759
4,C38U U60A,0.428
5,C38G A64U,0.112
6,C38U U70C,0.268
7,A39G G68A,0.0973
8,A39G G68C,0.103
9,A36U C46G,0.0439
10,A36U C46A,0.0951
11,C37G A59U,0.0586
12,C37A C66A,0.0612
13,C37A C66G,0.105
14,C37A C66U,0.179
15,C37G U67C,0.167
16,C37G U67G,0.132
17,C37A U70G,0.446
18,C38G U70G,0.216
19,C38G G56C,0.0901
20,A39G U67A,0.126
21,A39G U63A,0.111
22,A36U G40A,0.296
23,C38G A45G,0.259
24,C38G A45C,0.0432

row,Variant,self-cleavage
1,C37U C65A,0.533
2,A39C U63A,0.17
3,C37A G68C,0.254
4,C37G C50G,0.0454
5,A39G U62G,0.074
6,C38A C48U,0.135
7,C37A A49G,0.325
8,C37A A49C,0.0162
9,C38U G42A,0.132
10,A36U A45U,0.057
11,A36U A45G,0.106
12,A36U A45C,0.224
13,C37A A39U,0.0999
14,C37A U60A,0.303
15,C37G G57U,0.141
16,C37G G57A,0.13
17,A39U G51U,0.632
18,A39U G56A,0.114
19,C37U A39G,0.269
20,A36U U55A,0.161
21,A39C G51C,0.324
22,C37A G51C,0.239
23,C38G C48A,0.202
24,A36U A41C,0.654

row,Variant,self-cleavage
1,C38A C50G,0.089
2,A39G C65U,0.263
3,C38G G57C,0.103
4,C37G A49G,0.18
5,A39G A41U,0.474
6,A39G A41G,0.619
7,C37A U52C,0.266
8,A36U A43G,0.138
9,A36U A43U,0.0848
10,A36U A43C,0.0574
11,C38A U60A,0.0853
12,C38G U60G,0.146
13,C37G A45C,0.112
14,A39U G54C,0.0503
15,C37A A71U,0.284
16,C37A A71C,0.526
17,C38G A44C,0.17
18,C38G A44G,0.335
19,C38A A71U,0.129
20,A39G C66G,0.0926
21,C38A G40A,0.139
22,A36U A47U,0.141
23,A36U A47G,0.172
24,C37U G56U,0.13

row,Variant,self-cleavage
1,C37U G56C,0.198
2,A39G G69U,0.122
3,C37U U60C,0.645
4,C37U U60G,0.451
5,C37U U60A,0.352
6,A36U A49C,0.214
7,A39C C50U,0.156
8,C37A U62A,0.133
9,C37A C50U,0.138
10,C37G A43G,0.261
11,C37G A43U,0.177
12,C37G A43C,0.108
13,C37G G56C,0.176
14,A39U A41G,0.644
15,C38G G40A,0.148
16,C38G G40U,0.169
17,C38G G42C,0.134
18,A39U C66A,0.121
19,A39U C66G,0.135
20,C38U U67A,0.119
21,A39C A61U,0.125
22,C37G U70A,0.488
